What was measured:
[1] = target: T1, wild type CAD (CAD-WT) (1-345), caspase-activated deoxyribonuclease, 35S-labelled (mouse, UniProt O54788 1-344, 35S label); experiment: GST pull-down on glutathione-agarose beads, labelled CAD, SDS-PAGE
T1 construct: range 1-345; also called 35S-labeled CAD
T1 sequence (looked up): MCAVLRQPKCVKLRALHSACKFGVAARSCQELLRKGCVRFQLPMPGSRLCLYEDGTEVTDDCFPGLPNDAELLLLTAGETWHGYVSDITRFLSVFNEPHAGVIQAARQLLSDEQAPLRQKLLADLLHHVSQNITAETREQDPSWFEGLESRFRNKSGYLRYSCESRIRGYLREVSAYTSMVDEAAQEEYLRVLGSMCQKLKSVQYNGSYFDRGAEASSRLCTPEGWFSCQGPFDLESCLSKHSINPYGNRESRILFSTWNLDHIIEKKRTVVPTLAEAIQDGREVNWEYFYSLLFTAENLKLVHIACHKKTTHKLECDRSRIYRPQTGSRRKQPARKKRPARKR
Procedure: In detail, wild type CIA (CIA-WT) and its deletion mutants, CIA-ΔN, CIA-ΔC and CIA-CEN, all of them prepared in Example 4, were immobilized onto glutathione-agarose beads and then applied to in vitro translated [^35S] methionine-labeled CAD. Meanwhile, wild type CAD (CAD-WT) (1–345) and its deletion mutants, CAD-ΔN deficient in a […] region (Δ1–83), CAD-NT containing N-terminal half only (Δ162–345), CAD-ΔC deficient in a C-terminal region (Δ290–345), were prepared by PCR and cloned to pLexA (Clonetech). After being isolated and purified from E. coli transformants harboring the expression vectors, the recombinant proteins CAD-WT, CAD-ΔN, CAD-NT and CAD-ΔC, were labeled with ^35S radioactive isotope, and then applied to the glutathione-agarose beads onto which GST-CIA was immobilized. The proteins bounded to the glutathione-agarose beads were eluted, and separated on a gel by SDS-PAGE.

[2] = target: T2, ASK1 wild-type, full length (apoptosis signal-regulating kinase 1), in vitro translated and … (UniProt Q99683 1-1374, 35S-methionine label); experiment: GST pull-down on glutathione-agarose beads, 35S-labelled ASK1, SDS-PAGE
T2 construct: range 1-1375; also called full length ASK1; 35S-labeled ASK1
T2 sequence (looked up): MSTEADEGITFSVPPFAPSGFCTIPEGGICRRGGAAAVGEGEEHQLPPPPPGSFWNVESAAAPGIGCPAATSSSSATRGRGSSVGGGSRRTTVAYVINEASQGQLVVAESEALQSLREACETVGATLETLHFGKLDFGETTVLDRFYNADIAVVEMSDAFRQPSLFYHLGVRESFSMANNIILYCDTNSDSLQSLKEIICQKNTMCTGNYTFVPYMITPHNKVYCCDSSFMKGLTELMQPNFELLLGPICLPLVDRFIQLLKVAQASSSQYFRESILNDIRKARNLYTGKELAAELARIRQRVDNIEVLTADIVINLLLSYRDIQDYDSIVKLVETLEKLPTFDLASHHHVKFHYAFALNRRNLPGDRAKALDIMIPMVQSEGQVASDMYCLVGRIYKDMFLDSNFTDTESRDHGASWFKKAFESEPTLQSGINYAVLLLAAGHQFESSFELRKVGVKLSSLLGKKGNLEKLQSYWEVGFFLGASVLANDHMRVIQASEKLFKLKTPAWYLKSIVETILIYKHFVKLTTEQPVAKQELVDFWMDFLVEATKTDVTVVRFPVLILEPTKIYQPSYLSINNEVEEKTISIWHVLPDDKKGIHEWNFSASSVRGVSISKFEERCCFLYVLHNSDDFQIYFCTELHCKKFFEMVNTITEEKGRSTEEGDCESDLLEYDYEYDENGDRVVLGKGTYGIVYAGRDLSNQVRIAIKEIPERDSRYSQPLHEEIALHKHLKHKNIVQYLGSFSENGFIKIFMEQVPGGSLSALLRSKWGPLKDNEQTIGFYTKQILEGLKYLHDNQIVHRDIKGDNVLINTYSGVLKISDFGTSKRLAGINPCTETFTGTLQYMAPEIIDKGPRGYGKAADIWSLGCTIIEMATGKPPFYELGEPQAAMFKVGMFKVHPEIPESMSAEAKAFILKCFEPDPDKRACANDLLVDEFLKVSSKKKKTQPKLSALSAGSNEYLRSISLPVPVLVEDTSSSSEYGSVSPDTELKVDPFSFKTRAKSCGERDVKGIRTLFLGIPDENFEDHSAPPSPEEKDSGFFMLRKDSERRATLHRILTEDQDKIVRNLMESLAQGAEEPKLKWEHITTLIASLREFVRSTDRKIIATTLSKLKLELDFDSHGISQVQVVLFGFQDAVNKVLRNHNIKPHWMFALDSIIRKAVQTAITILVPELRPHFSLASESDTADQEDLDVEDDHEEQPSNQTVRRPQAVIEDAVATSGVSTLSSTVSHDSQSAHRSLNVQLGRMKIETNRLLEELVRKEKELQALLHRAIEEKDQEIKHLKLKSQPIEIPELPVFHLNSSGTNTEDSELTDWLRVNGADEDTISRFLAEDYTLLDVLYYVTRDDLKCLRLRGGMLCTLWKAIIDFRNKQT
Procedure: After being immobilized onto glutathione-agarose beads, GST-CIA-WT and its deletion recombinant peptides were reacted with the […] [^35S] methionine-labeled ASK1 or its mutant peptides at 4° C. for 3 hours in a buffer (50 mM Tris, pH 7.5, 150 mM NaCl, 2 mM EDTA, 1 mM dithiothreitol, 0.1% NP-40 and 5 mg/ml BSA). After completion of the reaction, the glutathione-agarose beads were washed three times with a buffer (50 mM HEPES, pH 7.5, 150 mM NaCl, 1 mM EDTA, 1 mM dithiothreitol, 0.1% Tween 20). Next, ^35S-labeled peptides were eluted from the glutathione-agarose beads and analyzed by SDS-PAGE.

B1: GST-CIA-CEN (CIA containing only amino acids 79 to 174) (other)
chain: AAFRQVQGSEISSIDEFCRKFRLDCPLAMERIKEDRPITIKDDKGNLNRCIADVVSLFITVMDKLRLEIRAMDEIQPDLRELMETMHRMSHLPPDF
notes: also called CIA mutant peptide deficient in both terminal regions; not shown: N-terminal GST of pGEX-4T-1 and its linker
- binding result [1]: no binding
- binding result [2]: no binding

B2: GST-CIA-ΔN (CIA deficient in N-terminal amino acids 1 to 78) (other)
chain: AAFRQVQGSEISSIDEFCRKFRLDCPLAMERIKEDRPITIKDDKGNLNRCIADVVSLFITVMDKLRLEIRAMDEIQPDLRELMETMHRMSHLPPDFEGRQTVSQWLQTLSGMSASDELDDSQVRQMLFDLESAYNAFNRFLHA
notes: Range follows from 'deficient in N-terminal amino acids 1 to 78' of the 221-residue protein; also called CIA-AN; N-terminal region-deleted CIA peptide; not shown: N-terminal GST of pGEX-4T-1 and its linker
- binding result [1]: no binding

From patent US6987089 (dated 2006)
